The text below walks through data of the supplement of paper PMC9170038.

In this data set the test system is MS2 coat protein. Kind of data set: apparent KD of MS2 coat protein; designed switch direction (-1 OFF switch, 1 ON switch): -1; higher = weaker reporter binding. In a few lines:
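Designed RNA switches were transcribed on Illumina chips by stalled E. coli RNA polymerase and titrated with SNAP-549-labelled MS2 coat protein from 0.7 or 1.5 nM, doubling to 3 µM. Step length ran from 0.8–1.5 h at the lowest concentration to 10–20 min at the highest. The apparent KD is the median over clusters for each design, from curve-fitted normalised cluster fluorescence.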

The mark [1] stands for this setting: input ligand: microRNA oligo, concentration not stated.
Where [2] appears, read: Eterna round: R95, input ligand: microRNA oligo, concentration not stated.
Where [3] appears, read: Eterna round: R95, input ligand: FMN 200 uM.
Where [4] appears, read: Eterna round: R95, input ligand: none.

Take “UUGGAGAUAGGAUAUACGAGGAGAGUUGAGGGAAGGUGAUGACAUGAGGAUCACCCAUGUAGAAGGAUCAGGAG [JR_Exclu2_Sub069] (Eterna round: R96, puzzle: Exclusion 2)”: the “apparent KD of MS2 coat protein” value (input ligand: FMN 200 uM) came out at 0.169 µM, the “apparent KD of MS2 coat protein” value under setting [1] came to 0.0988 µM and the “apparent KD of MS2 coat protein” value (input ligand: none) amounted to 0.172 µM.

Turning to “UUGGAGAUAGGAUAUACGAGGAGAGUUGAGGGAAGGUGAUGACAUGAGGAUCACCCAUGUAGAAGGAUCAGGAG [JR_Exclu2_Sub069] (puzzle: Exclusion 2)”, the “apparent KD of MS2 coat protein” value under setting [2] was determined as 0.118 µM.

Consider “UUGUAACGAUUAGGAUAUUAUUAAUAGAACUUUAUGAUAUACAUGAGGAUCACCCAUGUUACUUUUAAGAAGGAAUCGUAUUAU [JR_ExcNG2_Sub091] (Eterna round: R96, puzzle: Exclusion NG 2)”, for which, under setting [1], the “apparent KD of MS2 coat protein” value stood at 0.017 µM.

As for “UUGUACCGGUGAGGAUAUUUUUAAUAGAGCUUUAUGAUAUACAUGAGGAUCACCCAUGUUACGUUAAAGAAGGCAUCGGAUUAU [JL JR Sub091 mod 4] (Eterna round: R96, puzzle: Exclusion NG 2)”, the “apparent KD of MS2 coat protein” value is, setting by setting: (input ligand: FMN 200 uM) 0.0186 µM; under setting [1], 0.0139 µM; (input ligand: none) 0.0216 µM.

Consider “UUGUACCGGUGAGGAUAUUUUUGAUAGAACUUUAUGAUAUACAUGAGGAUCACCCAUGUUACUUUAAAGAAGGCAUCGGAUUAU [JL JR Sub091 mod 2] (Eterna round: R96, puzzle: Exclusion NG 2)”, for which the “apparent KD of MS2 coat protein” value under setting [1] was found to be 0.0143 µM.

With “UUGUCUAAUGUGAGGAUAUGCUGGUCCAUAGAUCAGCAGAAGGCACAUGAGGAUCACCCAUGUGAUAACACAAU (Eterna round: R97, puzzle: Brourd's mod of Exclusion 4)”, the “apparent KD of MS2 coat protein” value worked out at 0.296 µM (input ligand: FMN 200 uM) and 0.0213 µM (input ligand: none).

With “UUGUUAUAUGUAGGAUAUGCGUAUUAUUAUUAUGCAGAAGGACAUGAGGAUCACCCAUGUAUAUUAUUAUUAUAUAUUAUAUAU [Title] (Eterna round: R96, puzzle: Exclusion NG 1)”, the “apparent KD of MS2 coat protein” value under setting [1] was 0.0219 µM.

As for “UUGUUCUGAGGAUAUACAUGAGGAUCACCCAUGUGUUUCUGCUUGGAGACUAGCGAAUGUAGAAGGCUGUUCUC [salish99_ex3_r4_021] (Eterna round: R97, puzzle: Exclusion 3)”, the “apparent KD of MS2 coat protein” value amounted to 0.0152 µM (input ligand: FMN 200 uM) and 0.0142 µM (input ligand: none).

As to “UUGUUGUAUGUAGGAUAUGCGUAUUAUUAUUAUGCAGAAGGACAUGAGGAUCACCCAUGUGUAUUAUUAUUAUAUAUUAUAUAU [Title] (Eterna round: R96, puzzle: Exclusion NG 1)”, the “apparent KD of MS2 coat protein” value came out at 0.0443 µM (input ligand: FMN 200 uM), 0.0208 µM under setting [1] and 0.0197 µM (input ligand: none).

Take “UUGUUUUCCGCAGGAUAUGCUCCUCUAUUACUAGCAGAAGGGCGUUGAACAUGAGGAUCACCCAUGUAUGUAAUUGCUUAUUGC [JR_ExcNG1_Sub074] (Eterna round: R96, puzzle: Exclusion NG 1)”: the “apparent KD of MS2 coat protein” value was found to be 0.0193 µM (input ligand: FMN 200 uM), 0.0175 µM under setting [1] and 0.0244 µM (input ligand: none).

“UUUAAACAUGAGGAUCACCCAUGUAAGGAUAUACGAAUGCAGACACACACGGAUGCAAGUAGAAGGUACAAUGC [Design #9] (Eterna round: R97, puzzle: Exclusion 1)”: the “apparent KD of MS2 coat protein” value reads like this: (input ligand: FMN 200 uM) 0.0376 µM; (input ligand: none) 0.0426 µM.

As for “UUUAAACAUGAGGAUCACCCAUGUUAGGAUAUACGCAUGCAGACACGCACGGAUGCAAGUAGAAGGAACCAUGC [Design #6] (Eterna round: R97, puzzle: Exclusion 1)”, the “apparent KD of MS2 coat protein” value worked out at 0.0279 µM (input ligand: FMN 200 uM) and 0.0313 µM (input ligand: none).

For the sequence “UUUAAGUCAGGAUAUACAUGAGGAUCACCCAUGUAAAAUUUUAAUUUAAUUUUAAGGUGUAGAAGGGACAAUUU [Ex3 #3] (Eterna round: R97, puzzle: Exclusion 3)”, the “apparent KD of MS2 coat protein” value is, setting by setting: (input ligand: FMN 200 uM) 0.0295 µM; (input ligand: none) 0.0349 µM.

Consider “UUUAAUUUUUUUUUUUUACAAGCUUUUUGCUCGUCUUAUACAUGAGGAUCACCCAUGUAAAUGGAAGGUAAAUUAUC [JMF 67] (puzzle: Sensor v3, turn-off variant 2)”, for which the “apparent KD of MS2 coat protein” value is, setting by setting: under setting [3], 0.0155 µM; under setting [2], 0.0173 µM; under setting [4], 0.0135 µM.

Turning to “UUUAAUUUUUUUUUUUUACAAGCUUUUUGCUCGUCUUAUACAUGAGGAUCACCCAUGUAAGUGGGAAAUGAAUUAUC [JMF 99] (puzzle: Sensor v3, turn-off variant 2)”, the “apparent KD of MS2 coat protein” value under setting [3] is 0.0533 µM, the “apparent KD of MS2 coat protein” value under setting [2] is 0.419 µM and the “apparent KD of MS2 coat protein” value under setting [4] came out at 0.0779 µM.

With “UUUAAUUUUUUUUUUUUACAAGCUUUUUGCUCGUCUUAUACAUGAGGAUCACCCAUGUAGGUGAGAGAUAAAUUAUC [JMF 15] (puzzle: Sensor v3, turn-off variant 2)”, the “apparent KD of MS2 coat protein” value came out at 0.0196 µM under setting [3], 0.128 µM under setting [2] and 0.0244 µM under setting [4].

Turning to “UUUAAUUUUUUUUUUUUACAAGCUUUUUGCUCGUCUUAUACAUGAGGAUCACCCAUGUGAGUGGAGGAUAAAUUAUC [JMF 34] (puzzle: Sensor v3, turn-off variant 2)”, the “apparent KD of MS2 coat protein” value is, setting by setting: under setting [3], 0.0194 µM; under setting [2], 0.0292 µM; under setting [4], 0.0204 µM.

Regarding “UUUAAUUUUUUUUUUUUACAAGCUUUUUGCUCGUCUUAUACAUGAGGAUCACCCAUGUGGAUGGAGGAUAAAUUAUC [JMF 31] (puzzle: Sensor v3, turn-off variant 2)”, the “apparent KD of MS2 coat protein” value was 0.0201 µM under setting [3], 0.0187 µM under setting [2] and 0.0162 µM under setting [4].

In the case of “UUUAAUUUUUUUUUUUUACAAGCUUUUUGCUCGUCUUAUACAUGAGGAUCACCCAUGUGGGUAGAGGAUAAAUUAUC [JMF 28] (puzzle: Sensor v3, turn-off variant 2)”, the “apparent KD of MS2 coat protein” value under setting [3] was determined as 0.0387 µM, the “apparent KD of MS2 coat protein” value under setting [2] was found to be 0.0611 µM and the “apparent KD of MS2 coat protein” value under setting [4] was 0.0362 µM.

In the case of “UUUAAUUUUUUUUUUUUACAAGCUUUUUGCUCGUCUUAUACAUGAGGAUCACCCAUGUGGGUAGAGGGUAAAUUAUC [JMF 82] (puzzle: Sensor v3, turn-off variant 2)”, the “apparent KD of MS2 coat protein” value under setting [3] is 0.0151 µM, the “apparent KD of MS2 coat protein” value under setting [2] amounted to 0.0389 µM and the “apparent KD of MS2 coat protein” value under setting [4] worked out at 0.0149 µM.

In the case of “UUUAAUUUUUUUUUUUUACAAGCUUUUUGCUCGUCUUAUACAUGAGGAUCACCCAUGUGGGUGAAAGGUAAAUUAUC [JMF 64] (puzzle: Sensor v3, turn-off variant 2)”, the “apparent KD of MS2 coat protein” value is, setting by setting: under setting [3], 0.0467 µM; under setting [2], 0.021 µM; under setting [4], 0.0542 µM.

For “UUUAAUUUUUUUUUUUUACAAGCUUUUUGCUCGUCUUAUACAUGAGGAUCACCCAUGUGGGUGGAAGGUAAAUUAUC [JMF 70] (puzzle: Sensor v3, turn-off variant 2)”, the “apparent KD of MS2 coat protein” value under setting [3] was found to be 0.0794 µM, the “apparent KD of MS2 coat protein” value under setting [2] was 0.0267 µM and the “apparent KD of MS2 coat protein” value under setting [4] was found to be 0.176 µM.

Turning to “UUUACAAGCUAUAGAUCCCACAUGAGGAUCACCCAUGUUGCUGCCGGUGACGGUAGCAUAACUAUUGCUCGUCUUAU [JL TOV1 3.61] (Eterna round: R97, puzzle: Sensor, turn-off variant 1)”, the “apparent KD of MS2 coat protein” value (input ligand: FMN 200 uM) worked out at 0.15 µM and the “apparent KD of MS2 coat protein” value (input ligand: none) was determined as 0.185 µM.

Turning to “UUUACAAGCUUUAGAUCCCACAUGAGGAUCACCCAUGUUCCUGGCCGUGAGGCUAGGUAAACUAAUGCUCGUCUUAU [JL TOV1 3.65] (Eterna round: R97, puzzle: Sensor, turn-off variant 1)”, the “apparent KD of MS2 coat protein” value runs as follows: (input ligand: FMN 200 uM) 0.197 µM; (input ligand: none) 0.244 µM.

Take “UUUAGUUGGUAAGGAUAUCCUACAUUGUUCUGGCCCGGGCAUGCUACAUGAGGAUCACCCAUGUGGGAGAAGGUGCGUCAUCGC [Design 19] (Eterna round: R96, puzzle: Exclusion NG 2)”: the “apparent KD of MS2 coat protein” value was 0.0514 µM (input ligand: FMN 200 uM), 0.0394 µM under setting [1] and 0.0479 µM (input ligand: none).

As to “UUUAGUUGGUAAGGAUAUCCUACAUUGUUCUGGCCCGGGCAUGCUACAUGAGGAUCACCCAUGUGGGAGAAGGUGCGUCAUUGC [Design 20] (Eterna round: R96, puzzle: Exclusion NG 2)”, the “apparent KD of MS2 coat protein” value reads like this: (input ligand: FMN 200 uM) 0.0425 µM; under setting [1], 0.0425 µM; (input ligand: none) 0.0518 µM.

“UUUAUAAUAAGAUCAAUUAAUUAACAUGAGGAUCACCCAUGUGAGGAUAUCAGCUCGUUUAGAGCUGAGAAGGCACAAUAUAAG [ExNG3/17-B2] (Eterna round: R96, puzzle: Exclusion NG 3)”: the “apparent KD of MS2 coat protein” value (input ligand: FMN 200 uM) was determined as 0.0622 µM, the “apparent KD of MS2 coat protein” value under setting [1] turned out to be 0.0421 µM and the “apparent KD of MS2 coat protein” value (input ligand: none) was 0.0423 µM.

On to “UUUAUGCUAGGAUAUGCACCCUCGAACAUGAGGAUCACCCAUGUACAAUAAAAGCAUGGAGCAGAAGGAGCUCCCA [EX5 A.24] (Eterna round: R97, puzzle: Exclusion 5)”, for which the “apparent KD of MS2 coat protein” value is, setting by setting: (input ligand: FMN 200 uM) 0.378 µM; (input ligand: none) 0.0801 µM.

For the sequence “UUUAUGCUAGGAUAUGCACCCUCGAACAUGAGGAUCACCCAUGUACAAUAAACGCAUGGAGCAGAAGGAGCUCCGA [EX5 A.5] (Eterna round: R97, puzzle: Exclusion 5)”, the “apparent KD of MS2 coat protein” value (input ligand: FMN 200 uM) was found to be 0.203 µM and the “apparent KD of MS2 coat protein” value (input ligand: none) is 0.0867 µM.

Regarding “UUUAUGUGAGGAUAUAGUACUCCUUCUAUUAUUAUUGAGUACUAGAAGGCACAUGAGGAUCACCCAUGUAGUAC [Ex4 - 3 - 37] (puzzle: Exclusion 4)”, the “apparent KD of MS2 coat protein” value under setting [2] is 0.0243 µM.

Take “UUUCCUGCGCGGGUUUUUUACAUGAGGAUCACCCAUGUCCUCUGCUUGUCUUGUCUUGGGCUUGUUUCGGGUUCGGG [-18.4, -40.2 kcal, A 8%] (Eterna round: R97, puzzle: Sensor, turn-off variant 1)”: the “apparent KD of MS2 coat protein” value worked out at 0.635 µM (input ligand: FMN 200 uM) and 1.19 µM (input ligand: none).
